Results from the supplement of paper PMC10724198.
± gives the standard deviation of the averaged measurements.

What follows are sequences tested on Saccharomyces cerevisiae (assay: protein stability index of tFT-peptide fusion (C-terminal peptide) (PSI (0-1 scale)); higher = more stable (slower turnover)). Details: genetic background: wild type; temperature: 30 C.
Protocol: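 Multiplexed protein stability (MPS) profiling in S. cerevisiae. Random 12-aa peptides (tFT-X12 library) are fused to the C-terminus of a sfGFP-mCherry tandem fluorescent timer, after mCherry and a GGGS linker. Cells are FACS-sorted into 8 mCherry/sfGFP bins and deep-sequenced. The protein stability index (PSI) is the read-weighted bin average, scaled from 0 (unstable) to 1 (stable). Only peptides with >10 reads are reported; cells were grown at 30 °C in SC-His with glucose.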
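Note: PSI is a weighted mean of sequencing reads over stability bins, variants kept only with over 10 reads, mCherry proximal and sfGFP distal, peptide attached via GGGS linker.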

Sequence | protein stability index
GQPLAEKFGEFV | 0.623 ± 0.088
GRAPPGHSLPVR | 0.7187 ± 0.0071
GRAWWVGGEGVW | 0.677 ± 0.014
GRCGGEGGGEEE | 0.673 ± 0.031
GRCRALVARGGH | 0.76 ± 0.2
GREVRGLRVPGS | 0.653 ± 0.071
GRGEDLVRRHTP | 0.668 ± 0.032
GRGEGVDRSSRR | 0.703 ± 0.017
GRGGGEEEEEER | 0.663 ± 0.024
GRGGGSRIVGGV | 0.704 ± 0.023
GRGGRGWGEWDR | 0.706 ± 0.059
GRGGVLEEAVGG | 0.654 ± 0.077
GRGIVVQNVLRQ | 0.696 ± 0.011
GRGVDGRSGCLL | 0.6732 ± 0.0029
GRLPAYIHATRA | 0.63128 ± 0.00047
GRLSPRRPRLLV | 0.645 ± 0.024
GRPYCISASPPH | 0.706 ± 0.0075
GRQTEENRKRRV | 0.7 ± 0.037
GRRGRSASRIRA | 0.76 ± 0.14
GRRMGHQLGAGA | 0.684 ± 0.039
GRRMRGAEKQKK | 0.829 ± 0.16
GRRPDEQRQTIG | 0.677 ± 0.0071
GRRQGKRRIGRK | 0.652 ± 0.036
GRRTNLCERLAL | 0.722 ± 0.042
GRSAGGTGAPSR | 0.699 ± 0.022
GRSAVVMCFHAG | 0.697 ± 0.018

Sequence | protein stability index
GRSAYRESGRRV | 0.675 ± 0.04
GRSCAFCRVSRG | 0.721 ± 0.083
GRSGGGTGAPSR | 0.637 ± 0.061
GRSPEIGPHIVN | 0.699 ± 0.014
GRVGLRGRPGPP | 0.716 ± 0.12
GRVRAKTETSNS | 0.669 ± 0.028
GRVSGDRFIVIV | 0.572 ± 0.0008
GRVVGDGRSVGV | 0.683 ± 0.01
GSACGSSYKWQM | 0.614 ± 0.068
GSAGPWSFVGDP | 0.702 ± 0.085
GSCLLCGACGCR | 0.692 ± 0.061
GSCSGTVLGGSV | 0.626 ± 0.024
GSCVGASRGWLV | 0.727 ± 0.068
GSEISTRGVGRR | 0.6647 ± 0.0013
GSFVLPLIYIHN | 0.499 ± 0.0025
GSGGRGTVCSEG | 0.652 ± 0.015
GSGPPVGNGLIV | 0.7169 ± 0.0027
GSGRGGWRRGER | 0.707 ± 0.042
GSIRFVIFLTRL | 0.587 ± 0.12
GSLIVAARGVAG | 0.681 ± 0.024
GSLLSNVPPRIR | 0.706 ± 0.013
GSQRAHRQAAHD | 0.683 ± 0.077
GSQVGVRWGRFG | 0.675 ± 0.0079
GSRGGPGGEAAG | 0.652 ± 0.019
GSRRSWWVLCLG | 0.485 ± 0.072
GSRSLISLRTGA | 0.604 ± 0.037

Sequence | protein stability index
GSSHLRFRGMEG | 0.614 ± 0.02
GSSTINRVDLKR | 0.662 ± 0.015
GSSYRKNDRQEK | 0.723 ± 0.048
GSVFWVCGFFRV | 0.559 ± 0.034
GSVGDASYAAVW | 0.819 ± 0.034
GSVGQNLCPGSI | 0.667 ± 0.031
GSVGSRIFLVHV | 0.602 ± 0.086
GSVMGRRTGAFV | 0.653 ± 0.041
GSVRSLARFCVF | 0.499 ± 0.072
GSVTLTLLRPPS | 0.753 ± 0.086
GSYSIVDRTPLF | 0.5679 ± 0.005
GSYVPPVVLLYK | 0.647 ± 0.0095
GTDWRDKADLRG | 0.7071 ± 0.0046
GTEKRDSDKIIL | 0.68 ± 0.086
GTGSRFRCLERS | 0.739 ± 0.031
GTLFKEGSRVTL | 0.665 ± 0.027
GTRAGGGWSCES | 0.711 ± 0.02
GTRGLDTPPGRD | 0.663 ± 0.067
GTSPGREFYWHK | 0.702 ± 0.033
GTTHHRRKPSYL | 0.725 ± 0.05
GTTLGEVVCGVL | 0.683 ± 0.045
GTVDGILLVFVE | 0.593 ± 0.026
GVAPGRSRRKRG | 0.67 ± 0.018
GVCSWLVFGGWA | 0.684 ± 0.056
GVDAGGVFSRLC | 0.639 ± 0.018
GVDGRWGGEMGR | 0.747 ± 0.097

Sequence | protein stability index
GVEDRFGGSCGL | 0.639 ± 0.049
GVERSLFGRIGV | 0.735 ± 0.024
GVESQIHISTYE | 0.686 ± 0.049
GVEVVVWRSGGI | 0.688 ± 0.019
GVFAGGLWCVGF | 0.657 ± 0.087
GVFGGAGCGVVL | 0.724 ± 0.022
GVFGLMVGWGWG | 0.671 ± 0.053
GVFWRGCGGCGG | 0.685 ± 0.041
GVGDELIRAEQT | 0.723 ± 0.018
GVGGFPSRLVGG | 0.69 ± 0.043
GVGGRAGWGGLL | 0.7167 ± 0.002
GVGGRGVGAGGG | 0.662 ± 0.055
GVGLGGVGFRGG | 0.694 ± 0.098
GVGSWSCGGSVH | 0.6634 ± 0.0034
GVIKLTQEKAST | 0.679 ± 0.017
GVLCGQGRAGAA | 0.7 ± 0.014
GVLCGVGLGFGV | 0.702 ± 0.044
GVLDTRWIIIST | 0.53 ± 0.029
GVLLCVDGSGGE | 0.762 ± 0.054
GVMASLVRMSQG | 0.679 ± 0.11
GVPAPVFCRSIF | 0.618 ± 0.015
GVPPFSPPPPPH | 0.683 ± 0.017
GVQCLVFIGRPK | 0.69 ± 0.093
GVQEGGGVARGG | 0.639 ± 0.018
GVRGALGCAGRV | 0.679 ± 0.02
GVRNGFMSVSLY | 0.651 ± 0.01

Sequence | protein stability index
GVSGGDGSKCKE | 0.682 ± 0.016
GVSLFFITQFET | 0.712 ± 0.012
GVSPSCILPLIL | 0.653 ± 0.011
GVSPSPPSPPPH | 0.741 ± 0.062
GVSRGTGIGEGE | 0.6774 ± 0.0039
GVVCWRFLLADV | 0.596 ± 0.028
GVVGCSCLGCGF | 0.717 ± 0.054
GVVGVGRCWGLV | 0.628 ± 0.08
GVWCLDVYGRRC | 0.6837 ± 0.0022
GVYWGEIDDVER | 0.717 ± 0.015
GWAFDVAGQSAR | 0.683 ± 0.0097
GWAGGEGWRGEG | 0.6964 ± 0.0062
GWALGRGRRVSG | 0.691 ± 0.033
GWDFRERLGGSG | 0.71 ± 0.028
GWGGCDSVVVSG | 0.697 ± 0.033
GWGGGCGCGRGI | 0.687 ± 0.058
GWGVGGKVGQAG | 0.6814 ± 0.0047
GWLAERGPLEGG | 0.728 ± 0.016
GWLVVLGLVQDL | 0.559 ± 0.039
GWMTGMEERGGG | 0.674 ± 0.053
GWNCTAFRTLHI | 0.662 ± 0.061
GWNGAGSGCVRA | 0.659 ± 0.068
GWREPQHGARGP | 0.719 ± 0.022
GWRGGGSRELKW | 0.743 ± 0.031
GWWCAGVREWTR | 0.8 ± 0.013
GYCGRGCWGVGC | 0.7093 ± 0.0056

Sequence | protein stability index
GYLPPPDSLSSS | 0.672 ± 0.023
GYLVECKRLCVW | 0.588 ± 0.024
GYNARHILGRVG | 0.699 ± 0.011
GYNCKWGRTNVT | 0.6782 ± 0.0024
GYPASGVLIVFF | 0.512 ± 0.026
GYPLRSHCLIVD | 0.68 ± 0.0081
GYSPMGFSFFPV | 0.673 ± 0.047
HAPLIPRFALIP | 0.677 ± 0.013
HAPSRAPFPTAS | 0.71 ± 0.067
HCFCFSVSSFFG | 0.667 ± 0.026
HCFFSVPFRSGF | 0.691 ± 0.045
HCLLLSLVFFFW | 0.727 ± 0.03
HCSYSSSRPSPR | 0.543 ± 0.043
HDWPQTTRADQS | 0.677 ± 0.036
HFGRYLSSVFGV | 0.679 ± 0.05
HFGSSLPPFCCI | 0.76 ± 0.021
HFKHLALVQQFP | 0.69 ± 0.048
HFPPPPRPSAPP | 0.681 ± 0.036
HFSPLILSSYTV | 0.693 ± 0.037
HFVDAIPEGIHA | 0.583 ± 0.023
HGCQGKVRQSHR | 0.651 ± 0.039
HGCVWCSGLFGV | 0.739 ± 0.029
HGHLGKFLGARE | 0.689 ± 0.022
HGISLVWEVGEG | 0.6439 ± 0.0035
HGLPSFANPGNF | 0.716 ± 0.0095
